{"source": "patent US20240287172A1", "about": "(SCIRHOM, published 2024)", "binders": {"B1": {"name": "antibody 5 (antibody, V domains shown)", "VH": "QVTLKESGPGILQPSQTLSLTCSFSGFSLSTFGMGVGWIRQPSGKGLEWLAHIWWDDEKYYNSALKSRLTISKATSKNQAFLKIANVDTADTATYYCARISNYGSNYWYFNVWGTGTTVTVSS", "VL": "QVVLTQSPALMSASPGEKVTMTCSAGSSVSCMYWYQQKPGSSPRVLIYDTSNLASGVPARFTGSGSGTSYSLTISRMEAEDAASYYCQQWNSYPLTFGAGTKLELK", "notes": "mouse IgG, kappa light chain; also called clone #5; purified antibody 5"}, "B2": {"name": "antibody 42 (antibody, V domains shown)", "VH": "B1 VH with F24L, M34R, S63P, A74D, A80V, K83R, S101Q, N111D", "VL": "LIVLTQSPAIMSASPGEKVTMTCGATSRISYMFWYQQKPGSSPRVLIYDTSNLASGVPVRFSGSGSGTSYSLTISRVEAEDVATYYCQQWNSYPLTFGAGTKLELK", "notes": "mouse IgG, kappa light chain; also called clone #42; purified antibody 42"}, "B3": {"name": "antibody 43 (antibody, V domains shown)", "VH": "B1 VH with T3A, P42S, H52N, E58D, S63P, A74D, T75A, S101G, N111D", "VL": "B2 VL with L1Q, K18R, G24S, T26N, F33Y, V45L, V77M, V82A, Y86N, N91S", "notes": "mouse IgG, kappa light chain; also called clone #43; purified antibody 43"}, "B4": {"name": "antibody 34 (antibody, V domains shown)", "VH": "QVTLKESGPGILQPSQTLSLTCSFSGFSLSTFSLGVGWIRQSSGKGLEWLAHIWWDDEKYYNPALKSRLTISKDTSKNQVFLKIANVDAADTATYYCARAYYSKSYYALDYWGQGTSVTVSS", "VL": "DIQMTQSPSSLSASLGERVSLTCRASQEISGYLSWLQQKPDGTIKRLIYAASTLDSGVPKRFSGSRSGSDYSLAISSLESEDFADYYCLQYANFPFTFGSGTKLEIK", "notes": "mouse IgG, kappa light chain; also called clone #34; purified antibody 34"}, "B5": {"name": "antibody 3 (antibody, V domains shown)", "VH": "QVTLKESGPGILQPSQTLSLTCSFSGFSLTTFAMGIGWVRQPSGKGLEWLAHIWWDGEKYNNPVLKSRLTISKDTSKNQVFLRIANVDTPDTATYYCARISSIYYIIDNWGQGTSVTVSS", "VL": "DIVLTQSPATLSVTPGHSVSLSCRASQSISNNLHWYQKKSHESPRLLIKYVSQSISGIPSRFSGSGSGTDFTLSINSVETEDFGMYFCQQSYNWPLTFGAGTKLELK", "notes": "mouse IgG, kappa light chain; also called clone #3; purified antibody 3"}, "B6": {"name": "antibody 48 (antibody, V domains shown)", "VH": "QVQLQQSGTELVRPGTSVKVSCKASGYAFTNYLIEWVKQRPGQGLEWIGVINPGSGFTKYNEKFKGKATLTADKSSSTVYMHLSSLTSEDSAVYFCARGLYRAMDYWGQGTSVTVSS", "VL": "DIQMTQSPASQSASLGESVTITCLASQTIATWLAWYQQKPGKSPQLLIYGATTLADGVPSRFSGGGSGTKFSFKISSLQAEDFVSYYCQQLYSTPYTFGGGTKLEIK", "notes": "mouse IgG, kappa light chain; also called clone #48; purified antibody 48"}, "B7": {"name": "antibody 50 (antibody, V domains shown)", "VH": "B6 VH with T9A, T16A, T30S, V79A, H82Q", "VL": "B6 VL with A30G, G50A, T52A, T53S, S85N, L91I", "notes": "mouse IgG, kappa light chain; also called clone #50; purified antibody 50"}, "B8": {"name": "antibody 44 (antibody, V domains shown)", "VH": "B1 VH with G44E, E58D, S63P, A74D, A80I, A85T, D91E, A98S, S101G, N111D", "VL": "QIVLTQSPAVMSASPGEKVTMTCTASSSVYYMYWYQQTPGSSPRLLIYDTSNLASGVPVRFSGSGSGTSYSLTISRMEAEDAATYYCQQWNTYPLTFGAGTKLELK", "notes": "mouse IgG, kappa light chain; also called clone #44; purified antibody 44"}}, "note": "Changes are numbered by the printed parent chain."}
{"target": "T1, hiR2-FL-R543Q-T7 (human, UniProt Q6PJF5 1-856)", "T1 sequence": "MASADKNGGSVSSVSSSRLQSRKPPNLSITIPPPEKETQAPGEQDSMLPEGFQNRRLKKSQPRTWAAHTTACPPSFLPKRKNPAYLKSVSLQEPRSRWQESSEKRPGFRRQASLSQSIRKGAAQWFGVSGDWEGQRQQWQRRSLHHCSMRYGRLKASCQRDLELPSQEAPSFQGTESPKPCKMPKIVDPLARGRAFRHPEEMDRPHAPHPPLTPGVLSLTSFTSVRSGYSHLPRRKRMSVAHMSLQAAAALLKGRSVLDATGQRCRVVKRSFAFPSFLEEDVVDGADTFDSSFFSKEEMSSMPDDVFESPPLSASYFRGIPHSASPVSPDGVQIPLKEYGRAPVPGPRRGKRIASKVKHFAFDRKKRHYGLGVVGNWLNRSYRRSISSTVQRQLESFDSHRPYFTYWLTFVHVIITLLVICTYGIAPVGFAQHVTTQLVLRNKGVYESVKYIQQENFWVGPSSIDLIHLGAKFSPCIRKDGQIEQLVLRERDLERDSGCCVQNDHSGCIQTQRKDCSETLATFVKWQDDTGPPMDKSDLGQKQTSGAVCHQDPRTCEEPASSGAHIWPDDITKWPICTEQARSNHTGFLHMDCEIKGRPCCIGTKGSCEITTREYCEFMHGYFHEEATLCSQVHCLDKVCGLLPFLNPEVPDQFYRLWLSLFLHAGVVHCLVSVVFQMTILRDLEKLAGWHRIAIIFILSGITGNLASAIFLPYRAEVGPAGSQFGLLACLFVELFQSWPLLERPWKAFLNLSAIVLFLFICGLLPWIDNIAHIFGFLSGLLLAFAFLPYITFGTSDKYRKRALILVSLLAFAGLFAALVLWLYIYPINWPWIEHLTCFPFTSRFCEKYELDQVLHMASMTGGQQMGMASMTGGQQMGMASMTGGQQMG", "assay": "FACS on MEF-DKO cells"}
{"binder": "B1", "binding result": "no binding (tested: 3 µg/ml)"}
{"binder": "B2", "binding result": "no binding (tested: 3 µg/ml)"}
{"binder": "B3", "binding result": "no binding (tested: 3 µg/ml)"}
{"binder": "B4", "binding result": "no binding (tested: 3 µg/ml)"}
{"target": "T2, hiR2-FL-Q527P-T7 (human, UniProt Q6PJF5 1-856)", "T2 sequence": "T1 sequence with Q527P, Q543R", "assay": "FACS, MEF-DKO cells, 3 µg/ml", "units": {"loss of binding vs wild type": "%"}}
{"binder": "B5", "loss of binding vs wild type": "≥ 30"}
{"binder": "B6", "loss of binding vs wild type": "≥ 30"}
{"binder": "B7", "loss of binding vs wild type": "≥ 30"}
{"binder": "B1", "loss of binding vs wild type": "≥ 60"}
{"binder": "B2", "loss of binding vs wild type": "≥ 30"}
{"binder": "B3", "loss of binding vs wild type": "≥ 60"}
{"binder": "B8", "loss of binding vs wild type": "≥ 60"}
